# Results published in paper PMC2767265 (Nature structural & molecular biology, 2008).
# Like-named read-outs stand apart in the source and are kept apart here.
# B1: FtsY204 (FtsY residues 204-497, includes helix N1) (domain or fragment, E. coli, UniProt P10121 204-497, looked up)
# chain: LKTKENLGSGFISLFRGKKIDDDLFEELEEQLLIADVGVETTRKIITNLTEGASRKQLRDAEALYGLLKEEMGEILAKVDEPLNVEGKAPFVILMVGVNGVGKTTTIGKLARQFEQQGKSVMLAAGDTFRAAAVEQLQVWGQRNNIPVIAQHTGADSASVIFDAIQAAKARNIDVLIADTAGRLQNKSHLMEELKKIVRVMKKLDVEAPHEVMLTIDASTGQNAVSQAKLFHEAVGLTGITLTKLDGTAKGGVIFSVADQFGIPIRYIGVGERIEDLRPFKADDFIEALFARED
# modifications: for NMR: 13C on the methyl groups of isoleucine, leucine and valine
# B2: FtsYΔN1 (FtsY residues 221-497, lacks the A domain and the first helix of the N domain) (domain or fragment, E. coli, UniProt P10121 221-497, looked up)
# chain: KKIDDDLFEELEEQLLIADVGVETTRKIITNLTEGASRKQLRDAEALYGLLKEEMGEILAKVDEPLNVEGKAPFVILMVGVNGVGKTTTIGKLARQFEQQGKSVMLAAGDTFRAAAVEQLQVWGQRNNIPVIAQHTGADSASVIFDAIQAAKARNIDVLIADTAGRLQNKSHLMEELKKIVRVMKKLDVEAPHEVMLTIDASTGQNAVSQAKLFHEAVGLTGITLTKLDGTAKGGVIFSVADQFGIPIRYIGVGERIEDLRPFKADDFIEALFARED
# B3: FtsY lacking the first 46 amino acids of the A domain (wild-type reference) (domain or fragment, E. coli, UniProt P10121 47-497, looked up)
# chain: ASEQAVEEQPQAHTEAEAETFAADVVEVTEQVAESEKAQPEAEVVAQPEPVVEETPEPVAIEREELPLPEDVNAEAVSPEEWQAEAETVEIVEAAEEEAAKEEITDEELETALAAEAAEEAVMVVPPAEEEQPVEEIAQEQEKPTKEGFFARLKRSLLKTKENLGSGFISLFRGKKIDDDLFEELEEQLLIADVGVETTRKIITNLTEGASRKQLRDAEALYGLLKEEMGEILAKVDEPLNVEGKAPFVILMVGVNGVGKTTTIGKLARQFEQQGKSVMLAAGDTFRAAAVEQLQVWGQRNNIPVIAQHTGADSASVIFDAIQAAKARNIDVLIADTAGRLQNKSHLMEELKKIVRVMKKLDVEAPHEVMLTIDASTGQNAVSQAKLFHEAVGLTGITLTKLDGTAKGGVIFSVADQFGIPIRYIGVGERIEDLRPFKADDFIEALFARED
# Columns and labels:
# Assay in all cases: other fluorescence titration
# [1] = molecular target: T1, Ffh (E. coli SRP protein), wild type (E. coli, UniProt P0AGD7 1-453)
# T1 sequence (looked up): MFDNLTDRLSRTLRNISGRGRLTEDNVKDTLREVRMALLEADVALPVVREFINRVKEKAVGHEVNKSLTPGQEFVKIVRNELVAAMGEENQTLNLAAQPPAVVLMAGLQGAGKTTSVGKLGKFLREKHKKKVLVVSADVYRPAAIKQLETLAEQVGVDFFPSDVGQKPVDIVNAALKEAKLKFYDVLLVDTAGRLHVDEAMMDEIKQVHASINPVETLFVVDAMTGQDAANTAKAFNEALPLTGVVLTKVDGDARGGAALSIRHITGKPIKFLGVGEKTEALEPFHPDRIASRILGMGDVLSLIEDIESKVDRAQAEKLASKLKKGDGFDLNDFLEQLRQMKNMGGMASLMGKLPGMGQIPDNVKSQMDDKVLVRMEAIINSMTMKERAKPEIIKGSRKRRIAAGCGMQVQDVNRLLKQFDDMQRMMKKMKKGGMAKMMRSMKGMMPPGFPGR
# [2] = molecular target: T1, Ffh (E. coli SRP protein), wild type; remark: listed apart in the source
# [3] = molecular target: T1, Ffh (E. coli SRP protein), wild type; remark: listed apart in the source
Binder,binding result [1],Kd [2] [nM],koff [2] [s⁻¹],kon [2] [M⁻¹ s⁻¹],Kd [3] [nM],koff [3] [s⁻¹],kon [3] [M⁻¹ s⁻¹]
B1,binds,–,–,–,–,–,–
B2,–,7.98 ± 1.1,5.47e-06,685,14.9 ± 2.1,0.000605,40500
B3,–,82.7 ± 13,8.6e-06,104,68.4 ± 4.2,0.00265,38800
